The text below walks through data of patent publication US20230293704A1, “Compositions and Methods for Tendon Regeneration” (University of Rochester, priority 2022, published 2023).

For data set [1], the target named is T1, TRAP (Homo sapiens, UniProt P13686).
T1 sequence (P13686 22-325): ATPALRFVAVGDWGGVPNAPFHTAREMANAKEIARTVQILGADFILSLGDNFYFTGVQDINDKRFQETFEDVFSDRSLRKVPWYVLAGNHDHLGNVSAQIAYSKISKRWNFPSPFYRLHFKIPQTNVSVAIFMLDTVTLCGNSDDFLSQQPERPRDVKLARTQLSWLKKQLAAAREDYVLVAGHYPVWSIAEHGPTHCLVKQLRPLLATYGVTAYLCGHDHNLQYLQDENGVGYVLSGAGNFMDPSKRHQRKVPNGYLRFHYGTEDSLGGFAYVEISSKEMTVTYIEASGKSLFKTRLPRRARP
As to conditions: known from the art; cited from earlier work.

The target in data set [2] is T1, TRAP. Kind of data set: In vitro binding assay of TBP-NPs and SCP-NPs to TRAP (fluorescamine readout). As to conditions: NPs exposed to TRAP in serial dilutions, incubation 2 hours; read-out: Binding Affinity (Kd). The text has this:
(§1) Polymer-peptide conjugates were self-assembled into nanoparticles via solvent exchange from dimethylformamide (DMF) to water using a syringe pump. Dynamic light scattering (DLS) was used to characterize the size and zeta potential of TBP-NPs and SCP-NPs. An in vitro binding assay that involved exposure of TBP-NPs and SCP-NPs to TRAP in serial dilutions was used to determine the binding affinity of TBP-NPs and establish their efficacy for in vivo applications. Specifically, after exposure of TBP-NPs to TRAP and incubation for 2 hours, fluorescamine, a spiro compound that reacts with primary amines to form highly fluorescent compounds, was added to the reaction. The protein-dye complex was excited with UV LED (365 nm) and emitted at 470 nm on a Cytation 5 Imaging Multimode Reader. The binding affinity (Kd) and maximum binding (Bmax) were then calculated to determine the efficacy of the synthesized TBP-NPs (FIG. 1 C-D).

Data set [3] in a line: Dynamic light scattering characterization of nanoparticle size. It is filed as physicochemical. As to conditions: nanoparticles, DLS.
Text: as §1

The subject of data set [4] is S100a4. As to conditions: Sack et al. 2011; cited from earlier work.
Data set [5] deals with tartrate resistant acid phosphatase (TRAP). Put plainly: in vitro binding assay, NPs exposed to TRAP in serial dilutions, 2 h incubation, fluorescamine fluorescence readout.

No end group written: not given here. *: point of attachment. PSMA‑b‑PS = poly(styrene-alt-maleic anhydride)-b-poly(styrene) polymer; Alloc = C=CCOC(=O)*

For “TPLSYLKGLVTVG [TBP, TPLSYLKGLVTVG (SEQ ID NO: 1), peptide known to home to TRAP]”, the “affinity for TRAP” value in data set [1] was “sub-nanomolar affinity”.
One may read the Kd as the concentration at which binding is half-saturated. Turning to “ARO-TBP-Alloc: TBP-NPs from anhydride ring-opening conjugation of Alloc-protected-lysine TBP to PSMA-b-PS polymer, then self-assembly (TPLSYLKGLVTVG-OH; not fully specified (residue 7, N-terminus); printed as TPLSYLKAllocGLVTVG; also: ['conjugated to PSMA-b-PS polymer by anhydride ring-opening'])”, the equilibrium dissociation constant (Kd) in data set [2] was found to be 186 µM. Moreover, in data set [3], the “Diameter (nm)” value is on record as 32 ± 2 nm and the “Dispersity for Size” value was found to be 0.1 ± 0.1.
Taken in the same sequence, the figures for “CDI-TBP-Alloc: TBP-NPs made by carbodiimide coupling of Alloc-protected-lysine TBP to pre-formed PSMA-b-PS nanoparticles (TPLSYLK(Alloc)GLVTVG-OH; also: coupled to PSMA-b-PS nanoparticle by amide bond (carbodiimide), site not given here)” were 468 µM, 33 ± 3 nm and 0.2 ± 0.1.
In the case of “CDI-TBP: TBP-NPs made by carbodiimide coupling of free (unprotected) TBP to PSMA-b-PS nanoparticles (TPLSYLKGLVTVG; not fully specified; also: ['coupled to PSMA-b-PS nanoparticles by carbodiimide amide bond'])”, in data set [3], the “Diameter (nm)” value amounted to 66 ± 3 nm and the “Dispersity for Size” value is reported as 0.4 ± 0.1.
In the case of `O=C(Nc1ccc([N+](=O)[O-])cc1Cl)c1cc(Cl)ccc1O` [Niclosamide], in data set [4], the “effect on S100a4 gene and protein expression” value was “inhibit the S100a4 gene and protein expression”.

B1: TRAP binding peptide nanoparticles (TBP-NPs) prepared by anhydride ring-opening conjugation of Alloc-protected TBP to PSMA-b-PS polymer (peptide)
peptide: {PSMA‑b‑PS}-TPLSYLKGLVTVG-OH
modifications: not fully specified (residue 7); printed as TPLSYLKAllocGLVTVG; also: Lys7 Alloc-protected during conjugation, removal not given here
Molecule B1 yielded a dissociation constant (Kd) in data set [5] of 186 µM.

B2: TBP-NPs prepared by carbodiimide tagging of pre-formed PSMA-b-PS nanoparticles with Alloc-protected-lysine TBP (peptide)
peptide: TPLSYLK(Alloc)GLVTVG
modifications: not fully specified; printed as TPLSYLKAllocGLVTVG; also: ['coupled to PSMA-b-PS nanoparticles by carbodiimide amide bond']
As for B2, the Kd in data set [5] turned out to be 468 µM.
